Consider 1 molecule from paper PMC12486124 (bioRxiv, 2025).

The assay has as its target reconstituted nucleosome (Xenopus laevis histone octamer on Widom 601 DNA) (Xenopus laevis). Briefly: fluorescence polarisation.

B1: E2F1-DP2 DNA binding domains heterodimer (complex)
chain 1: not shown
chain 2: KNGKGLRHFSMKVCEKVQRKGTTSYNEVADELVSEFTNSNNHLAADSAYDQKNIRRRVYDALNVLMAMNIISKEKKEIKWIG
What is called Kd is the constant that tells how readily two partners part at equilibrium. High values mean weaker binding, low ones tighter binding. The molecule B1 yielded a Kd of 120 ± 10 nM.
